We go through ten molecules from paper PMC9177699, “Dynamic interplay between the periplasmic chaperone SurA and the BAM complex in outer membrane protein folding” (Communications Biology, 2022).

Test [1] concerns the target T1, β-barrel assembly machinery (BAM) complex, BamABCDE (E. coli, UniProt P0A940 21-810; P77774 20-392; P0A903 25-344; P0AC02 20-245; P0A937 20-113). The experiment in a line: MST; BAM in DDM micelles titrated (1.6 nM–52 μM) against 400 nM Alexa Fluor 488-labelled Cys-SurA variant; 0.02% (v/v) DDM, 150 mM NaCl, 20 mM Tris–HCl, pH 8, 25 °C; 1:1 quadratic binding model. The conditions noted are these: both partners purified.

Test [2] concerns the target T1, β-barrel assembly machinery (BAM) …. As to the kind of experiment: MST; BAM reconstituted in proteoliposomes of E. coli polar lipid extract titrated (25 µM–1 nM) against 400 nM Alexa Fluor 488-labelled SurA variant; TBS pH 8.0, 25 °C; 1:1 quadratic binding model. The conditions noted are these: both partners purified.
Test [3] shares this target. The experiment in a line: cell-based or functional assay.
In another test the target is BAM complex (BamABCDE) (E. coli, UniProt P0A940 21-810; P77774 20-392; P0A903 25-344; P0AC02 20-245; P0A937 20-113). As to the kind of experiment: MST; 400 nM Alexa Fluor 488-labelled SurA variant, BAM complex titrated 25 µM-1 nM in proteoliposomes of E. coli polar lipid extract, 150 mM NaCl, 20 mM Tris-HCl, pH 8.0, 25 °C; BAM concentration taken as 50 % of the total for fitting; 1:1 quadratic binding model. The conditions noted are these: both partners purified.

B1: Alexa Fluor 488-labelled Cys-SurA-core (domain or fragment)
chain: CAPQVVDKVAAVVNNGVVLESDVDGLMQSVKLNAAQARQQLPDDATLRHQIMERLIMDQIILQMGQKMGVKISDEQLDQAIANIAKQNNMTLDQMRSRLAYDGLNYNTYRNQIRKEMIISEVRNNEVRRRITILPQEVESLAQQVGNQNDASDAAQKDRAYRMLMNRKFSEEAASWMQEQRASAYVKILSN
modifications: Alexa Fluor 488 on the added N-terminal cysteine (maleimide)
notes: cysteine residue added immediately following the TEV cleavage site; numbers are the gene numbering (including the signal peptide); A G of the TEV site probably precedes the added cysteine after cleavage (surmised); not shown: His6, N-terminal, cleaved
As to B1, binding in test [1] was characterised by a dissociation constant (Kd) of 1300 ± 300 nM.

B2: Alexa Fluor 488-labelled Cys-SurA-∆P2 (domain or fragment)
chain: CAPQVVDKVAAVVNNGVVLESDVDGLMQSVKLNAAQARQQLPDDATLRHQIMERLIMDQIILQMGQKMGVKISDEQLDQAIANIAKQNNMTLDQMRSRLAYDGLNYNTYRNQIRKEMIISEVRNNEVRRRITILPQEVESLAQQVGNQNDASTELNLSHILIPLPENPTSDQVNEAESQARAIVDQARNGADFGKLAIAHSADQQALNGGQMGWGRIQELPGIFAQALSTAKKGDIVGPIRSGVGFHILKVNDLRGESKNIDAAQKDRAYRMLMNRKFSEEAASWMQEQRASAYVKILSN
modifications: Alexa Fluor 488 on the added N-terminal cysteine (maleimide)
notes: as for B1
As for B2, the binding result in test [2] is “binds”.

B3: SurA-∆P2 (SurA 21-428 without residues 281-389, His-tag cleaved) (domain or fragment)
chain: APQVVDKVAAVVNNGVVLESDVDGLMQSVKLNAAQARQQLPDDATLRHQIMERLIMDQIILQMGQKMGVKISDEQLDQAIANIAKQNNMTLDQMRSRLAYDGLNYNTYRNQIRKEMIISEVRNNEVRRRITILPQEVESLAQQVGNQNDASTELNLSHILIPLPENPTSDQVNEAESQARAIVDQARNGADFGKLAIAHSADQQALNGGQMGWGRIQELPGIFAQALSTAKKGDIVGPIRSGVGFHILKVNDLRGESKNIDAAQKDRAYRMLMNRKFSEEAASWMQEQRASAYVKILSN
For B3, the “rate of BAM-catalysed folding of tOmpA into proteoliposomes (cold SDS–PAGE), with SurA-∆P2 against SurA-WT” value in test [3] was approximately 3 fold.

B4: Alexa Fluor 488-labelled Cys-SurA-WT (natural protein)
chain: GCAPQVVDKVAAVVNNGVVLESDVDGLMQSVKLNAAQARQQLPDDATLRHQIMERLIMDQIILQMGQKMGVKISDEQLDQAIANIAKQNNMTLDQMRSRLAYDGLNYNTYRNQIRKEMIISEVRNNEVRRRITILPQEVESLAQQVGNQNDASTELNLSHILIPLPENPTSDQVNEAESQARAIVDQARNGADFGKLAIAHSADQQALNGGQMGWGRIQELPGIFAQALSTAKKGDIVGPIRSGVGFHILKVNDLRGESKNISVTEVHARHILLKPSPIMTDEQARVKLEQIAADIKSGKTTFAAAAKEFSQDPGSANQGGDLGWATPDIFDPAFRDALTRLNKGQMSAPVHSSFGWHLIELLDTRNVDKTDAAQKDRAYRMLMNRKFSEEAASWMQEQRASAYVKILSN
modifications: Alexa Fluor 488 (C5 maleimide) on the added N-terminal cysteine
notes: glycine left after TEV cleavage (ENLYFQG) and the cysteine added immediately following the TEV cleavage site; the order G-C is worked out from the text; gene numbering including the signal peptide; not shown: His6, N-terminal, cleaved
The molecule B4 came in with a Kd in the test with BAM complex (BamABCDE) of 600 nM.

B5: SurA-WT (wild-type SurA, residues 21-428, His-tag cleaved) (natural protein)
chain: APQVVDKVAAVVNNGVVLESDVDGLMQSVKLNAAQARQQLPDDATLRHQIMERLIMDQIILQMGQKMGVKISDEQLDQAIANIAKQNNMTLDQMRSRLAYDGLNYNTYRNQIRKEMIISEVRNNEVRRRITILPQEVESLAQQVGNQNDASTELNLSHILIPLPENPTSDQVNEAESQARAIVDQARNGADFGKLAIAHSADQQALNGGQMGWGRIQELPGIFAQALSTAKKGDIVGPIRSGVGFHILKVNDLRGESKNISVTEVHARHILLKPSPIMTDEQARVKLEQIAADIKSGKTTFAAAAKEFSQDPGSANQGGDLGWATPDIFDPAFRDALTRLNKGQMSAPVHSSFGWHLIELLDTRNVDKTDAAQKDRAYRMLMNRKFSEEAASWMQEQRASAYVKILSN
Regarding B5, in test [3], the “rate of BAM-mediated folding of tOmpA into proteoliposomes (cold SDS–PAGE), without SurA-WT against with 10 μM SurA-WT” value was approximately 6 fold.

B6: Alexa Fluor 488-labelled Cys-SurA-∆P2 (domain or fragment)
chain: GCAPQVVDKVAAVVNNGVVLESDVDGLMQSVKLNAAQARQQLPDDATLRHQIMERLIMDQIILQMGQKMGVKISDEQLDQAIANIAKQNNMTLDQMRSRLAYDGLNYNTYRNQIRKEMIISEVRNNEVRRRITILPQEVESLAQQVGNQNDASTELNLSHILIPLPENPTSDQVNEAESQARAIVDQARNGADFGKLAIAHSADQQALNGGQMGWGRIQELPGIFAQALSTAKKGDIVGPIRSGVGFHILKVNDLRGESKNIDAAQKDRAYRMLMNRKFSEEAASWMQEQRASAYVKILSN
modifications: Alexa Fluor 488 (C5 maleimide) on the added N-terminal cysteine
notes: as for B4
In the test with BAM complex (BamABCDE), B6 showed a Kd of 1200 nM. This lies in the single-digit micromolar range.

B7: Alexa Fluor 488-labelled Cys-SurA-∆P1 (domain or fragment)
chain: CAPQVVDKVAAVVNNGVVLESDVDGLMQSVKLNAAQARQQLPDDATLRHQIMERLIMDQIILQMGQKMGVKISDEQLDQAIANIAKQNNMTLDQMRSRLAYDGLNYNTYRNQIRKEMIISEVRNNEVRRRITILPQEVESLAQQVGNQNDASSVTEVHARHILLKPSPIMTDEQARVKLEQIAADIKSGKTTFAAAAKEFSQDPGSANQGGDLGWATPDIFDPAFRDALTRLNKGQMSAPVHSSFGWHLIELLDTRNVDKTDAAQKDRAYRMLMNRKFSEEAASWMQEQRASAYVKILSN
modifications: Alexa Fluor 488 on the added N-terminal cysteine (maleimide)
notes: cysteine residue added immediately following the TEV cleavage site; numbers are the gene numbering (including the signal peptide); A G of the TEV site probably precedes the added cysteine after cleavage (surmised); also called SurA-ΔP1; not shown: His6, N-terminal, cleaved
As for B7, in test [2], the binding result is on record as “binds”.

B8: Alexa Fluor 488-labelled Cys-SurA-∆P1 (domain or fragment)
chain: GCAPQVVDKVAAVVNNGVVLESDVDGLMQSVKLNAAQARQQLPDDATLRHQIMERLIMDQIILQMGQKMGVKISDEQLDQAIANIAKQNNMTLDQMRSRLAYDGLNYNTYRNQIRKEMIISEVRNNEVRRRITILPQEVESLAQQVGNQNDASSVTEVHARHILLKPSPIMTDEQARVKLEQIAADIKSGKTTFAAAAKEFSQDPGSANQGGDLGWATPDIFDPAFRDALTRLNKGQMSAPVHSSFGWHLIELLDTRNVDKTDAAQKDRAYRMLMNRKFSEEAASWMQEQRASAYVKILSN
modifications: Alexa Fluor 488 (C5 maleimide) on the added N-terminal cysteine
notes: as for B4
For the molecule B8, binding with BAM complex (BamABCDE) was characterised by a dissociation constant (Kd) of 600 nM.

B9: Alexa Fluor 488-labelled Cys-SurA-core (domain or fragment)
chain: GCAPQVVDKVAAVVNNGVVLESDVDGLMQSVKLNAAQARQQLPDDATLRHQIMERLIMDQIILQMGQKMGVKISDEQLDQAIANIAKQNNMTLDQMRSRLAYDGLNYNTYRNQIRKEMIISEVRNNEVRRRITILPQEVESLAQQVGNQNDASDAAQKDRAYRMLMNRKFSEEAASWMQEQRASAYVKILSN
modifications: Alexa Fluor 488 (C5 maleimide) on the added N-terminal cysteine
notes: as for B4
In the case of B9, the affinity with BAM complex (BamABCDE), expressed as Kd, was 700 nM.

B10: Alexa Fluor 488-labelled Cys-SurA-WT (natural protein)
chain: CAPQVVDKVAAVVNNGVVLESDVDGLMQSVKLNAAQARQQLPDDATLRHQIMERLIMDQIILQMGQKMGVKISDEQLDQAIANIAKQNNMTLDQMRSRLAYDGLNYNTYRNQIRKEMIISEVRNNEVRRRITILPQEVESLAQQVGNQNDASTELNLSHILIPLPENPTSDQVNEAESQARAIVDQARNGADFGKLAIAHSADQQALNGGQMGWGRIQELPGIFAQALSTAKKGDIVGPIRSGVGFHILKVNDLRGESKNISVTEVHARHILLKPSPIMTDEQARVKLEQIAADIKSGKTTFAAAAKEFSQDPGSANQGGDLGWATPDIFDPAFRDALTRLNKGQMSAPVHSSFGWHLIELLDTRNVDKTDAAQKDRAYRMLMNRKFSEEAASWMQEQRASAYVKILSN
modifications: Alexa Fluor 488 on the added N-terminal cysteine (maleimide)
notes: cysteine residue added immediately following the TEV cleavage site; numbers are the gene numbering (including the signal peptide); A G of the TEV site probably precedes the added cysteine after cleavage (surmised); also called Alexa Fluor 488-labelled SurA; not shown: His6, N-terminal, cleaved
Regarding B10, the Kd in test [1] was found to be 2600 ± 200 nM.

For orientation: Kd means a measure of binding affinity in units of concentration. A higher Kd goes with lower affinity.
